In patent US9157067B2, “Pluripotent cells from mammalian late epiblast layer” (priority 2006, dated 2015):

How the values were obtained:
rat epiblast layers = experiment: Derivation of EpiSC lines from rat epiblast layers; assay type: cell-based
Description: The hypothesis that Activin and FGF signalling in pluripotency are conserved in mammalian development is supported by the ability of Activin/Nodal signalling to maintain long-term pluripotency of both human ESCs and mouse EpiSCs. As a further test of this hypothesis, we attempted to derive EpiSCs from rats, a species from which embryonic stem cell derivation has been problematic. Following the method we established in the mouse, epiblast layers were dissected from rat embryos at pre-gastrula stages (E 7.5-8.5) and grown on fibronectin-coated or FBS coated plates in CDM supplemented with Activin and FGF. […] Nevertheless, four EpiSC lines were derived out of 14 embryos of the Wistar strain and 1 EpiSC line was derived out of 20 embryos from the Sprague-Dawley strain using CDM supplemented with Activin alone.

Rat EpiSCs = experiment: Oct-4 immunostaining of rat EpiSCs grown in supplemented CDM; assay type: cell-based; conditions: after one week in CDM; 5B431542 10 uM; BMP4 10 ng/ml + 5B431542 10 uM; Activin 10 ng/ml + Noggin 100 ng/ml
Method: hESCs, mouse ESCs or EpiSCS were fixed for 20 minutes at 4° C. in 4% paraformaldehyde (PFA) and then washed three times in PBS. Cells were incubated for 20 minutes at room temperature in PBS containing 10% goat serum (Serotec) and subsequently incubated over night at 4° C. with primary antibody diluted in 1% goat serum in PBS as follows: SSEA-3 (1:100, Santa Cruz), SSAE-1 (1:25, gift from PW Andrews), Tra-1-60 (1:100, Santa CruZ), Oct-4 (1:100, SantaCruz), Sox2 (1:100, Abeam ab15830), Nanog (1:100, Abeam), Blirnpl (Abeam). Cells were then washed three times in PBS and incubated with fluorescein-Isothiocyanate-conjugated anti-mouse IgG or IgM (Sigma 1:200 in 1% goat serum in PBS) or rat IgM (Jackson laboratory 1:300 in goat serum in PBS) or rabbit IgG (Jackson laboratory 1:200 in donkey serum in PBS) for two hours at room temperature. Unbound secondary antibody was removed by 3 washes in PBS. Hoechst 33258 was added to the first wash (Sigma 1:10000).
Rat EpiSCs were grown in CDM supplemented in the presence of Activin (10 ng/ml), 5B431542 (10 uM), BMP4 10 ng/ml+5B431542 (10 uM) or Activin (10 ng/ml)+Noggin (IOOng/ml). After one week, the expression of the pluripotency marker Oct-4 was analysed using immunostaining. […] Similar results were obtained with mouse EpiSCs.

[1] = Rat Sprague-Dawley, 8.5 d.p.c, 37° C., fibro

B1: FGF4: growth factor added to rat epiblast cultures (protein, UniProt P08620 31-206, looked up)
Fibroblast growth factor 4: APTAPNGTLEAELERRWESLVALSLARLPVAAQPKEAAVQSGAGDYLLGIKRLRRLYCNVGIGFHLQALPDGRIGGAHADTRDSLLELSPVERGVVSIFGVASRFFVAMSSKGKLYGSPFFTDECTFKEILLPNNYNAYESYKYPGMFIALSKNGKTKKGNRVSPTMKVTHFLPRL
In the case of B1, the “differentiation of early epiblast cultures” value (rat epiblast layers; addition to CDM supplemented with Activin) is reported as “induced differentiation”.

B2: Activin: activin agonist growth factor, dimeric polypeptide stimulating the Activin/Nodal pathway (protein, UniProt P08476 311-426, looked up)
Inhibin beta A chain: GLECDGKVNICCKKQFFVSFKDIGWNDWIIAPSGYHANYCEGECPSHIAGTSGSSLSFHSTVINHYRMRGHSPFANLKSCCVPTKLRPMSMLYYDDGQNIIKKDIQNMIVEECGCS
B2 gave a Lines derived (rat epiblast layers; [1]) of 1, a Rate % (rat epiblast layers; [1]) of 5% and a Rate % (rat epiblast layers; Rat Water (Wistar), 8.5 d.p.c, 38° C., FCS) of 35%.

B3: Noggin: natural BMP inhibitor (protein, UniProt Q13253 28-232, looked up)
Noggin: QHYLHIRPAPSDNLPLVDLIEHPDPIFDPKEKDLNETLLRSLLGGHYDPGFMATSPPEDRPGGGGGAAGGAEDLAELDQLLRQRPSGAMPSEIKGLEFSEGLAQGKKQRLSKKLRRKLQMWLWSQTFCPVLYAWNDLGSRFWPRYVKVGSCFSKRSCSVPEGMVCKPSKSVHLTVLRWRCQRRGGQRCGWIPIQYPIISECKCSC
B3 was tested, and the “expression of the pluripotency marker Oct-4” value (Rat EpiSCs) was “did not decrease expression of Oct-4”.
